According to patent US20190211076A1 (published 2019):
Positions count from the first letter of the chain named.

T1: HMHA1 (Rho GTPase-activating protein 45), minor histocompatibility antigen HA-1H, R139H polymorphism peptide … (human)
T1 peptide: VLHDDLLEA

B1: HA-1H TCR2 (TCR, V domains shown)
Valpha: KQEVTQIPAALSVPEGENLVLNCSFTDSAIYNLQWFRQDPGKGLTSLLLIQSSQREQTSGRLNASLDKSSGRSTLYIAASQPGDSATYLCAVIGLGGTYKYIFGTGTRLKVLA
Vbeta: GVSQDPRHKITKRGQNVTFRCDPISEHNRLYWYRQTLGQGPEFLTYFQNEAQLEKSRLLSDRFSAERPKGSFSTLEIQRTEQGDSAMYLCASSLVKGEKLFFGSGTQLSVL
B2: HA-1H TCR16 (TCR, V domains shown)
Valpha: KQEVTQIPAALSVPEGENLVLNCSFTDSAIYNLQWFRQDPGKGLTSLLLIQSSQREQTSGRLNASLDKSSGRSTLYIAASQPGDSATYLCAVHLLNDYKLSFGAGTTVTVRA
Vbeta: B1 Vbeta with K96V, E98N, K99E, L100Q, S104P, Q107R, S109T
B3: TCR1 (TCR, V domains shown)
Valpha: QQGEEDPQALSIQEGENATMNCSYKTSINNLQWYRQNSGRGLVHLILIRSNEREKHSGRLRVTLDTSKKSSSLLITASRAADTASYFCATKRDSGAGSYQLTFGKGTKLSVIP
Vbeta: GVSQDPRHKITKRGQNVTFRCDPISEHNRLYWYRQTLGQGPEFLTYFQNEAQLEKSRLLSDRFSAERPKGSFSTLEIQRTEQGDSAMYLCASSSTGGHNEQFFGPGTRLTVL
B4: TCR5 (TCR, V domains shown)
Valpha: QQGEEDPQALSIQEGENATMNCSYKTSINNLQWYRQNSGRGLVHLILIRSNEREKHSGRLRVTLDTSKKSSSLLITASRAADTASYFCATNSGNTPLVFGKGTRLSVIA
Vbeta: GVSQDPRHKITKRGQNVTFRCDPISEHNRLYWYRQTLGQGPEFLTYFQNEAQLEKSRLLSDRFSAERPKGSFSTLEIQRTEQGDSAMYLCASSLTTLDEQYVGPGTRLTVT
B5: TCR10 (TCR, V domains shown)
Valpha: KNQVEQSPQSLIILEGKNCTLQCNYTVSPFSNLRWYKQDTGRGPVSLTIMTFSENTKSNGRYTATLDADTKQSSLHITASQLSDSASYICVVDSGGGADGLTFGKGTHLIIQP
Vbeta: B4 Vbeta with L94M, T95L, L97N, D98Y, V102F

Molecular target: T1, HMHA1 (Rho GTPase-activating protein …)
Test: chromium release, peptide titration on pulsed target cells; one value stated for the seven clones together (FIG. 2B); T cell clone or line
Protocol: (A) HLA-A2/HA-1^H multimer and CD8⁺ monoclonal antibody staining of seven (7) representative HA-1^H specific clones (1, 2, 10, 13, […], 16, and 5) and a control clone specific for another tumor antigen. (B) Data from a chromium release assay in which the seven HA-1^H-specific clones were tested for killing HA-1 peptide-pulsed target cells. (C) Data from cytotoxicity assays in which the HA-1^H-specific CTL clones were incubated with peptide-pulsed T2 cells, HA-1^H+ AML cell line THP-1, HA-1^H+ primary AML, or HA-1⁻ AML.
In addition, a chromium release assay (CRA) was used to test 7 of the HA-1-specific CTL clones (1, 2, 10, 13, 14, 16 and 5) for killing of HA-1^H peptide-pulsed targets. The T cell clones recognized HA-1^H peptide ([…])-pulsed target cells at very low peptide concentrations and half-maximal lysis is seen at a peptide concentration of 10 pM. (FIG. 2B) (ICC data not shown). Cytotoxicity of the isolated clones against cells with or without endogenous HA-1^H expression was also examined. The assays show 7 HA-1^H-specific CTL clones (TCR1, TCR2, TCR10, TCR13, TCR14, TCR16 and TCR5) lysing HA-1^H+ acute myeloid leukemia (AML) cell line (THP-1) and HA-1^H+ primary AML but not HA-1^H- AML (FIG. 2C).

EC50 of peptide, 0.01 nM:
B1
B2
B3
B4
B5
